From patent publication US7052908B2, “Androgen receptor coactivators” (University of Rochester, priority 1998, dated 2006) come the findings set out here.

Positions count from the first letter of the chain named.

One experiment concerns the target T1, mARe708k (Homo sapiens, UniProt P10275, E710K).
T1 construct: expressed in transfected cells; host or cells: DU145
T1 sequence (P10275 1-920 E710K): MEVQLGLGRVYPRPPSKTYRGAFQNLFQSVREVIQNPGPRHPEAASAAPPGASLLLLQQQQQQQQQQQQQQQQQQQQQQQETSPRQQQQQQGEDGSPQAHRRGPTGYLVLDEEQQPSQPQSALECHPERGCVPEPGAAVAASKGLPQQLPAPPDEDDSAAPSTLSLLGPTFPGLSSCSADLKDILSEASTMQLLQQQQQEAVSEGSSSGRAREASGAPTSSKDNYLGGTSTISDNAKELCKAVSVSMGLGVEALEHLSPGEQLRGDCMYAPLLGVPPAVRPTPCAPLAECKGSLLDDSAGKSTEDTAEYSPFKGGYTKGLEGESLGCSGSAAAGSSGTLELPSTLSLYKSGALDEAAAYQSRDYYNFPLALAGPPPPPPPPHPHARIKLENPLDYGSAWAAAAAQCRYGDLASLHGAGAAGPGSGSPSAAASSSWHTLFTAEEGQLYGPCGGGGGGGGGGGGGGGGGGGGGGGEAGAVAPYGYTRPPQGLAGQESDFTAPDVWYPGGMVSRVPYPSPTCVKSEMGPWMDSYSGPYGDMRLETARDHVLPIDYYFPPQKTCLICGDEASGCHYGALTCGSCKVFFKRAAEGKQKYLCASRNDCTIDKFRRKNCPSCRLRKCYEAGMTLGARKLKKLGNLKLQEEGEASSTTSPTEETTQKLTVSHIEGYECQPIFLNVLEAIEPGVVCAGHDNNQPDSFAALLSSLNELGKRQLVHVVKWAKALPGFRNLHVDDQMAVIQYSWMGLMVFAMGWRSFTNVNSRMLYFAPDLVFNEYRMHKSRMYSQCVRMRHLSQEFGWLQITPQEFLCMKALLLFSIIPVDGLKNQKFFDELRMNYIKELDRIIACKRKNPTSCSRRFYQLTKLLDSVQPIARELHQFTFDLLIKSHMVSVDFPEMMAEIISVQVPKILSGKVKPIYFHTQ
Kind of experiment: AR transactivation, transient transfection CAT reporter assay, mutant AR. It counts as cell-based. The note with it: mARe708k, DHT 10^-11 to 10^-8 M. Background: A reporter such as luciferase makes a cellular process visible.

Experiment [1] deals with T2, progesterone receptor (PR) (Homo sapiens, UniProt P06401).
T2 construct: expressed in transfected cells; host or cells: DU145
T2 sequence (P06401 1-933): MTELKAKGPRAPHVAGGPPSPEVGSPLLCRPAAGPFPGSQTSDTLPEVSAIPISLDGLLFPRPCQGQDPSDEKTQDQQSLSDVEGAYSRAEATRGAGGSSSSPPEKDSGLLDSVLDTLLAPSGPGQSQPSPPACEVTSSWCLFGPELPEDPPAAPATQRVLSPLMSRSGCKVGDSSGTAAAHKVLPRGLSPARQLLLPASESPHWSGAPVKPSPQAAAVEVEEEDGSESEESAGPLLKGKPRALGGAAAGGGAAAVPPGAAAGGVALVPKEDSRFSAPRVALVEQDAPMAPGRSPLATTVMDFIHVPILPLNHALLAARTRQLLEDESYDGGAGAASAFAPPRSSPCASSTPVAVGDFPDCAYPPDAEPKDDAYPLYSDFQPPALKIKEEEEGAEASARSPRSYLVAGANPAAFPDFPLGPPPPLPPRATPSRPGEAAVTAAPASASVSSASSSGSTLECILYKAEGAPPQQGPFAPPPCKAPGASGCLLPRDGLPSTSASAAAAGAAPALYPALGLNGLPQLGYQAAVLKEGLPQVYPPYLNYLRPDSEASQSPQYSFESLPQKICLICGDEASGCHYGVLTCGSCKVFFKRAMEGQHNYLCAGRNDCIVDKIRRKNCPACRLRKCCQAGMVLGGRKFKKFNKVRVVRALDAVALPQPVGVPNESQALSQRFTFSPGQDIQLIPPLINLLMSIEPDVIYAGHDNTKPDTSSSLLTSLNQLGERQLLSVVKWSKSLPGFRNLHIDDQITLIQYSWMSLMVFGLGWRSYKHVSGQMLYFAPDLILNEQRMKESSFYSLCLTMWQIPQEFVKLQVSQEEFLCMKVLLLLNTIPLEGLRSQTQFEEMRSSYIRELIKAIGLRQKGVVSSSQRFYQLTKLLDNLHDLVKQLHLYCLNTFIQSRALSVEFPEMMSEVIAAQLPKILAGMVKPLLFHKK
Briefly: Steroid receptor transactivation, MMTV-CAT reporter in DU145 cells. It counts as cell-based. The note with it: DU145, relative to AR.

In the next experiment the target is T3, wtAR (Homo sapiens, UniProt P10275).
T3 sequence (P10275 1-920): T1 sequence (P10275 1-920 E710K) with K710E
Briefly: AR transactivation, transient transfection with MMTV-CAT reporter in DU145 cells.

B1: ARA55: androgen receptor coactivator, 444 aa, SEQ ID NO:4, 91% homology with mouse hic5 (protein)
chain: MPRSGAPKERPAEPLTPPPSYGHQPTGQSGESSGASGDKDHLYSTVCKPRSPKPAAPAAPPFSSSSGVLGTGLCELDRLLQELNATQFNITDEIMSQFPSSKVASGEQKEDQSEDKKRPSLPSSPSPGLPKASATSATLELDRLMASLPDFRVQNHLPASGPTQPPVVSSTNEGSPSPPEPTAKGSLDTMLGLLQSDLSRRGVPTQAKGLCGSCNKPIAGQVVTALGRAWHPEHFVCGGCSTALGGSSFFEKDGAPFCPECYFERFSPRCGFCNQPIRHKMVTALGTHWHPEHFCCVSCGEPFGDEGFHEREGRPYCRRDFLQLFAPRCQGCQGPILDNYISALSLLWHPDCFVCRECFAPFSGGSFFEHEGRPLCENHFHARRGSLCPTCGLPVTGRCVSALGRRFHPDHFACTFCLRPLTKGSFQERAGKPYCQPCFLKLFG
modifications: Homo sapien
Consider B1, for which the “enhancement of transactivation by ARA55” value is given as 4–8 fold with mARe708k and 4–8 fold with wtAR (wtAR, DHT 10^-11 to 10^-8 M). Moreover, in experiment [1], the “enhancement of PR transcriptional activation by ARA55” value is reported as “to a lesser degree”. The “AR transcriptional activity induction with ARA55 cotransfected” value in the experiment with wtAR (10 nM DHT plus ARA55, DU145) was 22.8 fold. For the same molecule, the “further increase of the DHT induction of AR transcriptional activity by ARA55” value with wtAR (10 nM DHT, dose-dependent, plateau at AR:ARA55 1:4.5, DU145) is on record as 5.3 fold.
